B1: ssm.pk0026.g11: soybean type II GST encoded by cDNA insert in clone ssm.pk0026.g11 (protein)
chain: MASASVGKELTLYSYWRSSCSHRVRIALNLKGLKYEYKPVNLLKGEQSRPEFLQLNPVGCVPVLVDDHVVLYDSFAIIMYLEDKYPHNPLLPHDIYKRAINFQAASVVSSTIQPLHNLSLLNYIGEKVGPDEKLPWAQSIIRRGFKALEKLLKDHTGRYATGDEVFLADIFLAPQLHAAFKRFNIHMNEFPILARLHETYNEIPAFQEALPENQPDAVH
B2: se1.pk0017.f5: soybean type IV GST encoded by cDNA insert in clone se1.pk0017.f5 (protein)
chain: MASLGVRPVLPPPLTSISDPPPLFDGTTRLYISYSCPYAQRVWIARNYKGLQDKINLVPINLQDRPAWYKEKVYPENKVPSLEHNGKVLGESLDLIKYVDANFEGTPLFPSDPAKKEFGEQLISHVDTFSKDLFVSLKGDAVQQASPAFEYLENALGKFDDGPFLLGQFSLVDIAYIPFVERFQIVFAEVFKHDITEGRPKLATWFEELNKLNAYTETRVDPQEIVDLFKKRFLPQQ
B3: se1.27b04: soybean type I GST encoded by cDNA insert in clone se1.27b04 (protein)
chain: MICLHEKEVDFELVPVNVFAAEHKQPPFLSKNPFGFIPVLEDGDLTLFESRAITAYVAEKFKETEPDLIRHKDAKEAALVKVWTEVESHYYEPAVSPIIYEYFVAPFQGKEPDKSVIDTNVEKLKTVLDVYEAKLSSTKYLAGDFYSLADLSHVSETHYLMQTPCASMINELPHVKAWWEDISSRPAFNKVVGGMSFGQNH

Assay: GST conjugation activity with CDNB (HPLC)
Assay type: biochemical
Settings: 0.4 mM electrophilic substrate, 4 mM glutathione, 0.1 M MOPS pH 7.0, corrected for uncatalyzed reaction
From the text: (§1) The GST enzymes, expressed and purified as described in Example 5 were screened for their ability to metabolize a variety of substrates. Substrates tested included the three herbicide electrophilic substrates chlorimuron ethyl, alachlor, and Atrazine, and four model electrophilic substrates, 1-chloro-2, 4-dinitro-benzene (CDNB), ethacrynic acid, t-stilbene oxide, and 1,2-epoxy-3-(p-nitro-phenoxy) propane. The enzymes were purified as described in Example 5 and used in the following assay.
(§2) For each enzyme, the conjugation reaction with each electrophilic substrate was performed by incubating 0.3 to 30 μg enzyme in 0.1 M MOPS (pH 7.0) containing 0.4 mM of the electrophilic substrate. The reaction was inititated by the addition of glutathione to a final concentration of 4 mM. After 5 to 30 min, the reaction was terminated by the addition of 45 μL acetonitrile, microfuged for 10 min to remove precipitated protein, and then the supematent was removed and added to 65 μL of water. This sample was chromatographed on a Zorbax C8 reverse phase HPLC column (3 μm particle size, 6.2 mm×8 cm) using a combination of linear gradients (flow=1.5 mL/min) of 1% H3 PO4 in water (solvent A) and 1% H3 PO4 in acetonitile. The gradient started with 5% solvent B, progressing from 5% to 75% solvent B between 1 and 10 min, and from 75% to 95% solvent B between 10 and 12 min. Control reactions without enzyme were performed to correct for uncatalyzed reaction. Quantitation of metabolites were based on an assumption that the extinction coefficient of the conjugate was identical to that of the electrophilic substrate.
(§3) Activities are related to the activity of a known and previously isolated and purified GST enzyme, GH2/4 (also called GST 26) (Czarnecka et al., Plant Molecular Biology 3:45-58 (1984); Ulmasoz et al., Plant Physiol 108:919-927 (1995)).

Molecule	Activity of soybean GST enzyme, CDNB
B1	15 nmol/min/mg
B2	30 nmol/min/mg
B3	15 nmol/min/mg

Assay: GST conjugation activity with 1,2-epoxy-3-(p-nitrophenoxy)propane (HPLC)
Assay type: biochemical
Settings: 0.4 mM electrophilic substrate, 4 mM glutathione, 0.1 M MOPS pH 7.0, corrected for uncatalyzed reaction
From the text: as §1, §2, §3

Molecule	Activity of soybean GST enzyme, 1,2-epoxy-3-(p-nitrophenoxy)propane
B1	2 nmol/min/mg
B2	0 nmol/min/mg
B3	0 nmol/min/mg

Assay: GST conjugation activity with ethacrynic acid (HPLC)
Assay type: biochemical
Settings: 0.4 mM electrophilic substrate, 4 mM glutathione, 0.1 M MOPS pH 7.0, corrected for uncatalyzed reaction
From the text: as §1, §2, §3

Molecule	Activity of soybean GST enzyme, Ethacrynic Acid
B1	5 nmol/min/mg
B2	3 nmol/min/mg
B3	11 nmol/min/mg

Assay: GST conjugation activity with alachlor (HPLC)
Assay type: biochemical
Settings: 0.4 mM electrophilic substrate, 4 mM glutathione, 0.1 M MOPS pH 7.0, corrected for uncatalyzed reaction
From the text: as §1, §2, §3

Molecule	Activity of soybean GST enzyme, Alachlor
B1	0 nmol/min/mg
B2	0 nmol/min/mg
B3	0 nmol/min/mg

Assay: GST conjugation activity with chlorimuron ethyl (HPLC)
Assay type: biochemical
Settings: 0.4 mM electrophilic substrate, 4 mM glutathione, 0.1 M MOPS pH 7.0, corrected for uncatalyzed reaction
From the text: as §1, §2, §3

Molecule	Activity of soybean GST enzyme, Chlorimuron Ethyl
B1	0.0 nmol/min/mg
B2	0.0 nmol/min/mg
B3	0.1 nmol/min/mg

Assay: GST conjugation activity with t-stilbene oxide (HPLC)
Assay type: biochemical
Settings: 0.4 mM electrophilic substrate, 4 mM glutathione, 0.1 M MOPS pH 7.0, corrected for uncatalyzed reaction
From the text: as §1, §2, §3

Molecule	Activity of soybean GST enzyme, T-Stilbene Oxide
B1	0.04 nmol/min/mg
B2	0.15 nmol/min/mg
B3	0.00 nmol/min/mg

Assay: GST conjugation activity with Atrazine (HPLC)
Assay type: biochemical
Settings: 0.4 mM electrophilic substrate, 4 mM glutathione, 0.1 M MOPS pH 7.0, corrected for uncatalyzed reaction
From the text: as §1, §2, §3

Molecule	Activity of soybean GST enzyme, Atrazine
B1	0.00 nmol/min/mg
B2	0.00 nmol/min/mg
B3	0.00 nmol/min/mg

From patent publication US6168954A, “Soybean glutathione-S-transferase enzymes” (E. I. du Pont de Nemours & Company, priority 1999, dated 2001)
